Consider one molecule from patent US20100104603A1 (published 2010).

By Kd is commonly meant the equilibrium constant for the complex coming apart.

Ends that are not written are not given here.

The target in assay [1] is T1, Staphylococcal superantigen-like protein 5 (SSL5) of S. aureus strain NTCT 8325, recombinant (Staphylococcus aureus strain NTCT 8325, UniProt A0A0H3K6Z6 31-234).
T1 sequence: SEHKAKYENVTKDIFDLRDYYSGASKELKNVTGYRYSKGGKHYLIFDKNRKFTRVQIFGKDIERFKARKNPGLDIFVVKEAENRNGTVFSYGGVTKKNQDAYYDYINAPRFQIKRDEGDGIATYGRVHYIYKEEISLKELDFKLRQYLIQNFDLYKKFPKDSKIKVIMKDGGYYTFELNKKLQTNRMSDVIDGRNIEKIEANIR

Assay [2] concerns the target T2, IL-8 (UniProt P10145 28-99).
T2 construct: also called biotin-labeled IL-8
T2 sequence: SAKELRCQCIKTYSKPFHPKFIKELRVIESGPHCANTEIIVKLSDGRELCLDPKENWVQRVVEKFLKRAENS
Briefly: ELISA: IL-8-coated wells, PSGL-1/Ig without SSL5.

B1: recombinant human PSGL-1-Fc construct (PSGL-1/Ig fusion protein) (Fc fusion)
chain: QATEYEYLDYDFLPETEPPEMLRNSTDTTPLTGPGTPESTTVEPAAR
modifications: ends and bridges not checked; also: fused to Ig Fc part
notes: also called rPSGL/Ig; not shown: Ig/Fc part
Consider B1, for which, in assay [1], the Kd came to 820 nM. The binding result in assay [2] is recorded as “no binding (tested: 1 µg/ml)”.
